The text below walks through data of PMC7033311, “The Eaf3 chromodomain acts as a pH sensor for gene expression by altering its binding affinity for histone methylated-lysine residues” (Bioscience Reports, 2020).

Where no end group is shown, it is not given here. [ ]: non-standard residue; d: D form. The star is where a group is joined. MTSL = spin label, CC1(C)C=C(CS*)C(C)(C)N1[O]; Lys(Me3) = C[N+](C)(C)CCCC[C@H](N)C(=O)O

Usually Kd stands for a measure of binding affinity in units of concentration.

Conditions in all cases: both partners purified
For experiment [1], the target named is T1, Eaf3 chromodomain (Eaf3 CD, residues 1-120), wild type (S. cerevisiae, UniProt Q12432 1-120).
T1 construct: Eaf3 chromodomain (CD), budding yeast (S. cerevisiae), residues 1-120; 15N-labelled for the NMR experiments; expressed from pET15b; also called WT Eaf3 CD; source: E. coli BL21(DE3)pLysS, purified (Ni-NTA, thrombin, Ni-NTA flow-through, Superdex75)
T1 sequence (looked up): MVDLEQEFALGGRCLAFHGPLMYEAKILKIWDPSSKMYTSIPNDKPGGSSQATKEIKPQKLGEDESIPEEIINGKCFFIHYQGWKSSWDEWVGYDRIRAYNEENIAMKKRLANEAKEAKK
Nature of the experiment: paramagnetic relaxation enhancement (NMR); MTSL-H3K36me3 peptide added to 0.3 mM 15N-labelled Eaf3 CD at 1:1; 10 mM potassium phosphate pH 6.8, 20 mM NaCl; paramagnetic against ascorbate-reduced sample.

For experiment [2], the target named is T2, Eaf3 CD (residues 1-120) H18D (S. cerevisiae, UniProt Q12432 1-120, H18D).
T2 construct: Eaf3 chromodomain (CD), budding yeast (S. cerevisiae), residues 1-120, H18D; 15N-labelled for the NMR experiments; also called H18D Eaf3 CD; source: E. coli BL21(DE3)pLysS, purified (Ni-NTA, thrombin, Ni-NTA flow-through, Superdex75)
T2 sequence (looked up): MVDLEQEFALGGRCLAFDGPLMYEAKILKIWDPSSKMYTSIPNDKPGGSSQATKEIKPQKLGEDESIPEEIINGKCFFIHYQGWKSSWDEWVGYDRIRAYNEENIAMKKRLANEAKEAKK
The description is as above.

Experiment [3] addresses T1, Eaf3 chromodomain (Eaf3 CD, residues …). Nature of the experiment: NMR titration; 0.1 mM 15N-labelled WT or mutant Eaf3 CD titrated with unlabelled histone H3 peptide up to 1:88; 10 mM potassium phosphate pH 6.8, 20 mM NaCl, 5 mM DTT, 25°C; Kd by nonlinear fit of chemical shift change.
Experiment [4] concerns the target T3, Eaf3 CD (residues 1-120) G19A (S. cerevisiae, UniProt Q12432 1-120, G19A).
T3 construct: Eaf3 chromodomain (CD), budding yeast (S. cerevisiae), residues 1-120, G19A; 15N-labelled for the NMR experiments; source: E. coli BL21(DE3)pLysS, purified (Ni-NTA, thrombin, Ni-NTA flow-through, Superdex75)
T3 sequence (looked up): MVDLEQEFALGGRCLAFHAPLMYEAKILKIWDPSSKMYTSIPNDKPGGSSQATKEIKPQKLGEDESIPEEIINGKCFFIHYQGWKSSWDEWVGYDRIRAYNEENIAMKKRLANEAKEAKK
The experiment is described as above.

For experiment [5], the target named is T4, Eaf3 CD (residues 1-120) Q82A (S. cerevisiae, UniProt Q12432 1-120, Q82A).
T4 construct: Eaf3 chromodomain (CD), budding yeast (S. cerevisiae), residues 1-120, Q82A; 15N-labelled for the NMR experiments; source: E. coli BL21(DE3)pLysS, purified (Ni-NTA, thrombin, Ni-NTA flow-through, Superdex75)
T4 sequence (looked up): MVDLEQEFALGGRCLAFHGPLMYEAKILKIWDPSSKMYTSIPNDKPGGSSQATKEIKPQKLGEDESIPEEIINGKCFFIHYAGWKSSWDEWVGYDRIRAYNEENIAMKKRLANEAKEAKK
The description is as above.

Experiment [6] concerns the target T5, Eaf3 CD (residues 1-120) W84Y (S. cerevisiae, UniProt Q12432 1-120, W84Y).
T5 construct: Eaf3 chromodomain (CD), budding yeast (S. cerevisiae), residues 1-120, W84Y; 15N-labelled for the NMR experiments; source: E. coli BL21(DE3)pLysS, purified (Ni-NTA, thrombin, Ni-NTA flow-through, Superdex75)
T5 sequence (looked up): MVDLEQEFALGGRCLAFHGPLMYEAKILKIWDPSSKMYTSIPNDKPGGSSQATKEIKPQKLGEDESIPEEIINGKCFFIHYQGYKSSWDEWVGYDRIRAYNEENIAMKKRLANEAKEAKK
The description is as above.

B1: MTSL spin-labelled H3K36me3 peptide (residues 32-41) with a Gly33Cys substitution (peptide, UniProt P61830 33-42, looked up)
peptide: TC(MTSL)GVK(me3)KPHRY
notes: histone H3 residues 32-41 with Gly33Cys; also called MTSL-H3K36me3 peptide; paramagnetically labeled H3K36me3 peptide; source: synthetic peptide (SIGMA Genosys), labelled with MTSL
With B1, the binding result in experiment [1] and in experiment [2] was “binds” throughout.

B2: histone H3 peptide H3K4me3, titration peptide (peptide)
chain: ART[Lys(Me3)]QTARKSTGGKAPRY
For B2, the Kd came to 2900 ± 10 µM in experiment [3], 800 ± 70 µM in experiment [4], 2240 ± 280 µM in experiment [5] and 1590 ± 280 µM in experiment [6].
